According to patent US20190345207A1 (Pieris, published 2019):

Target: T1, cynomolgus LAG-3 on CHO cells stably transfected with cyLAG-3 (CHO-cyLAG-3) (cynomolgus monkey)
T1 construct: whole, on cells; also called CHO::cynomolgus LAG-3
Assay: FACS on transfected CHO cells
Method: To perform the experiment, LAG-3-positive and negative Flp-In CHO cells were incubated with lipocalin muteins, and bound mutein was labeled using fluorescently labeled anti-hTlc antibodies, and then the signal was detected using FACS analysis as described in this example.
5×10⁴ cells per well were pre-incubated for 1 h in ice-cold PBS containing 5% fetal calf serum (PBS-FCS). […] Cells were subsequently washed and analyzed using a intellicyt IQue Flow cytometer (Intellicyt). Fluorescent data generated by lipocalin mutein binding to LAG-3 expressing cells were analyzed by gating for LAG-3 expressing CHO cells and using Forecyt@ software and resulted geometric fluorescent mean were plotted and fitted using Graphpad software.

B1: benchmark anti-LAG-3 antibody (SEQ ID NOs: 5 and 6) (antibody, human IgG4 S228P, kappa, V domains shown)
VH: QVQLQQWGAGLLKPSETLSLTCAVYGGSFSDYYWNWIRQPPGKGLEWIGEINHRGSTNSNPSLKSRVTLSLDTSKNQFSLKLRSVTAADTAVYYCAFGYSDYEYNWFDPWGQGTLVTVSS
VL: EIVLTQSPATLSLSPGERATLSCRASQSISSYLAWYQQKPGQAPRLLIYDASNRATGIPARFSGSGSGTDFTLTISSLEPEDFAVYYCQQRSNWPLTFGQGTNLEIKR
notes: also called benchmark antibody
B1 was tested, and the EC50 was 46.8 nM.
